{
  "source": "paper PMC4046795",
  "target": "recombinant human EGFR/ErbB1 Fc chimera (rhEGFR) (human, UniProt P00533 25-645)",
  "test": "SPR",
  "data": [
    {"binder": "E07 anti-EGFR aptamer (structured_RNA, 2'-fluoropyrimidine) RNA: GGCGCUCCGACCUUAGUCUCUGUGCCGCUAUAAUGCACGGAUUUAAUCGCCGUAGAAAAGCAUGUCAAAGCCGGAACCGUGUAGCACAGCAGAGAAUUAAAUGCCCGCCAUGACCAG", "values": [
      {"measurement": "Kd", "result": 112, "unit": "nM"}
    ]}
  ]
}
